# From the RNAGym collection of RNA variant scans (doi:10.1093/nar/gkz1192)
# B1: CPEB3 Ribozyme (parent)
# chain: UAACAGGGGGCCACAGCAGAAGCGUUCACGUCGCAGCCCCUGUCAGAUUCUGGUGAAUCUGCGAAUUCUGCUGUAUAUCUC
# Variants of: B1
# Assay: self-cleavage, relative activity (ratio to wild type); higher = more cleavage; in vitro, sequencing
# Procedure, shortened: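 Libraries of CPEB3 self-cleaving ribozyme mutants came from rounds of error-prone PCR and carried barcodes, which DNA sequencing matched to variants. In vitro transcription used T7 RNA polymerase at 37°C for 5 hours, with a further 15 min in DNase I before EDTA stopped the reaction; the ribozymes cleaved during both steps. The RNA was reverse transcribed with template switching and sequenced on Illumina. Relative activity is the cleaved/total read fraction of a variant divided by that of the unmutated ribozyme, averaged over three batches with at least 5 reads.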
row,Variant,self-cleavage
1,A18U U67C,0.26
2,A18U U67G,0.19
3,A18U U69A,1.19
4,A18U U69C,0.47
5,A18U U69G,1.14
6,A18U U72A,0.19
7,A18U U72C,0.42
8,A18U U72G,0.5
9,A18U U74A,0.62
10,A18U U74C,0.61
11,A18U U76A,0.36
12,A18U U76C,0.39
13,A18U U76G,0.3
14,A18U U78A,0.36
15,A18U U78C,0.38
16,A18U U80A,0.53
17,A18U U80C,0.52
18,A18U U80G,0.51
19,G19A,0.29
20,G19A A20U,0.11
21,G19A A21U,0.1
22,G19A A28G,0.2
23,G19A A35U,0.17
24,G19A A45G,0.25

row,Variant,self-cleavage
1,G19A A45U,0.07
2,G19A A56G,0.2
3,G19A A56U,0.12
4,G19A A57G,0.26
5,G19A A64G,0.21
6,G19A A65G,0.51
7,G19A A75G,0.09
8,G19A A77G,0.3
9,G19A C29G,0.24
10,G19A C32A,0.08
11,G19A C39A,0.11
12,G19A C39U,0.33
13,G19A C40G,0.1
14,G19A C40U,0.21
15,G19A C59U,0.17
16,G19A C62U,0.36
17,G19A G36C,0.14
18,G19A G42A,0.15
19,G19A G52A,0.16
20,G19A U25A,0.28
21,G19A U25C,0.13
22,G19A U26C,0.31
23,G19A U31A,0.44
24,G19A U41C,0.22

row,Variant,self-cleavage
1,G19A U43A,0.36
2,G19A U48C,0.16
3,G19A U49C,0.1
4,G19A U51A,0.31
5,G19A U51C,0.32
6,G19A U54C,0.23
7,G19A U60G,0.4
8,G19A U66A,0.13
9,G19A U66C,0.44
10,G19A U66G,0.51
11,G19A U67A,0.07
12,G19A U67C,0.17
13,G19A U69A,0.14
14,G19A U69C,0.13
15,G19A U72C,0.18
16,G19A U78A,0.47
17,G19A U80A,0.58
18,G19A U80C,0.27
19,G19C,0.29
20,G19C A20U,0.4
21,G19C A28U,0.07
22,G19C A35C,0.2
23,G19C A35U,0.22
24,G19C A56G,0.07

row,Variant,self-cleavage
1,G19C A56U,0.19
2,G19C A57G,0.23
3,G19C A57U,0.13
4,G19C A75U,0.29
5,G19C A77G,0.24
6,G19C C37U,0.16
7,G19C C40U,0.29
8,G19C C68U,0.63
9,G19C G22A,0.22
10,G19C G24A,0.11
11,G19C G30C,0.25
12,G19C G52U,0.35
13,G19C G53A,0.09
14,G19C U25C,0.06
15,G19C U26C,0.27
16,G19C U41A,0.44
17,G19C U41C,0.18
18,G19C U41G,0.32
19,G19C U48A,0.18
20,G19C U48C,0.35
21,G19C U49A,0.36
22,G19C U60A,0.16
23,G19C U60C,0.15
24,G19C U67C,0.21

row,Variant,self-cleavage
1,G19C U74C,0.19
2,G19C U78C,0.71
3,G19U,0.27
4,G19U A20G,0.29
5,G19U A20U,0.42
6,G19U A21G,0.2
7,G19U A28G,0.14
8,G19U A28U,0.08
9,G19U A35G,0.63
10,G19U A35U,0.15
11,G19U A45C,0.22
12,G19U A45G,0.08
13,G19U A45U,0.2
14,G19U A47G,0.22
15,G19U A47U,0.5
16,G19U A56G,0.5
17,G19U A56U,0.14
18,G19U A57C,0.19
19,G19U A57G,0.48
20,G19U A64U,0.15
21,G19U A65G,0.26
22,G19U A65U,0.09
23,G19U A75U,0.28
24,G19U A77U,0.12

row,Variant,self-cleavage
1,G19U C32G,0.19
2,G19U C37A,0.31
3,G19U C37U,0.38
4,G19U C40A,0.21
5,G19U C44A,0.43
6,G19U C44U,0.18
7,G19U C50A,0.15
8,G19U C50U,0.38
9,G19U C81U,0.34
10,G19U G36A,0.18
11,G19U G36C,0.19
12,G19U G42A,0.18
13,G19U G61A,0.3
14,G19U G61C,0.13
15,G19U G63U,0.28
16,G19U G73A,0.51
17,G19U G73U,0.56
18,G19U U25A,0.19
19,G19U U25C,0.08
20,G19U U25G,0.2
21,G19U U31C,0.2
22,G19U U41A,0.22
23,G19U U41C,0.22
24,G19U U43A,0.29

row,Variant,self-cleavage
1,G19U U43C,0.1
2,G19U U48A,0.2
3,G19U U48C,0.2
4,G19U U49A,0.08
5,G19U U49C,0.15
6,G19U U51A,0.18
7,G19U U51C,0.22
8,G19U U58A,0.04
9,G19U U58C,0.39
10,G19U U58G,0.12
11,G19U U60A,0.45
12,G19U U60C,0.28
13,G19U U67A,0.13
14,G19U U67C,0.13
15,G19U U69A,0.27
16,G19U U69C,0.09
17,G19U U72A,0.32
18,G19U U72C,0.4
19,G19U U72G,0.4
20,G19U U74C,0.56
21,G19U U76A,0.18
22,G19U U78C,0.32
23,G19U U80A,0.19
